These results are taken from PMC9472616.

In test [1] the target is European mink ACE2 fused to mouse Fc (EmkACE2-mFc) (European mink). As to the kind of experiment: SPR. In general terms: Surface plasmon resonance follows binding to a sensor surface in real time, without labels.
In test [2] the target is American mink ACE2 fused to mouse Fc (AmkACE2-mFc) (American mink (Neovison vison)). In words: SPR.

On to “SARS-CoV-2 WT RBD (from UniProt P0DTC2 319-541) (domain or fragment)”, for which the figures for the equilibrium dissociation constant (Kd) in test [1] and in test [2] were 52.8 µM and 8.92 µM, respectively.
